# B1: huntingtin associated protein 1 (HAP1) (natural protein)
# chain: MRPKEQVQSGAGDGTGSGDPAAGTPTTQPAVGPAPEPSAEPKPAPAQGTGSGQKSGSRTKTGSFCRSMIIGDSDAPWTRYVFQGPYGPRATGLGTGKAEGIWKTPAAYIGRRPGVSGPERAAFIRELQEALCPNPPPTKKITEDDVKVMLYLLEEKERDLNTAARIGQSLVKQNSVLMEENNKLETMLGSAREEILHLRKQVNLRDDLLQLYSDSDDDDDEEDEEDEEEGEEEEREGQRDQDQQHDHPYGAPKPHPKAETAHRCPQLETLQQKLRLLEEENDHLREEASHLDNLEDEEQMLILECVEQFSEASQQMAELSEVLVLRLEGYERQQKEITQLQAEITKLQQRCQSYGAQTEKLQQMLASEKGIHSESLRAGSYMQDYGSRPRDRQEDGKSHRQRSSMPAGSVTHYGYSVPLDALPSFPETLAEELRTSLRKFITDPAYFMERRDTHCREGRKKEQRAMPPPPAQDLKPPEDFEAPEELVPEEELGAIEEVGTAEDGQAEENEQASEETEAWEEVEPEVDETTRMNVVVSALEASGLGPSHLDMKYVLQQLSNWQDAHSKRQQKQKVVPKDSPTPQQQTNMGGGILEQQPRVPTQDSQRLEEDRATHSPSAREEEGPSGAT
# How the values were obtained:
# [1] = target: tubulin (α-tubulin) (mouse (endogenous in striatum)) (UniProt P68369); assay: co-IP
# [2] = target: GABAA receptor (GABAAR β2/3 subunits) (mouse (endogenous in striatum)) (UniProt P63137); assay: co-IP
# Sequence of UniProt P63137 (P63137 whole entry, looked up): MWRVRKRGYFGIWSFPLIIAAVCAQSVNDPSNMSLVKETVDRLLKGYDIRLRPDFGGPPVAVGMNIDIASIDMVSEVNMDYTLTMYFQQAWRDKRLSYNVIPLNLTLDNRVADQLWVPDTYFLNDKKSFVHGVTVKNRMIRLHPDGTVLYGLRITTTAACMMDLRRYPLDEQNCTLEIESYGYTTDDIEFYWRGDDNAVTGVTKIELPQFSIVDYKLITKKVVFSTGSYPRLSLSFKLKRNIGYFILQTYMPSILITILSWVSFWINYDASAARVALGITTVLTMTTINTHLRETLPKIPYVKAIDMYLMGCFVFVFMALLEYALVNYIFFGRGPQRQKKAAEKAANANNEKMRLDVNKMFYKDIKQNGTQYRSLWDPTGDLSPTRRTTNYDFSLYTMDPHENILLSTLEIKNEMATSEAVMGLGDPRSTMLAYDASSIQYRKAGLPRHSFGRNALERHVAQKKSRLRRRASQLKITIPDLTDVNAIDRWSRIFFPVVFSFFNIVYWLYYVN
molecule,measurement,setting,value
GABAA receptor (GABAAR β2/3 subunits) (from UniProt P63137 26-512; P63080 26-473),"co-precipitated amount in HD (N171-82Q) mice, % of WT mice",[1],65.3 % of WT
KIF5 heavy chain (from UniProt Q61768 1-963) (natural protein),"co-precipitated amount in HD (N171-82Q) mice, % of WT mice",[2],41.5 % of WT
same,"co-precipitated amount in HD (N171-82Q) mice, % of WT mice",[1],35.5 % of WT
tubulin (α-tubulin) (from UniProt P68369 1-451) (natural protein),"co-precipitated amount in HD (N171-82Q) mice, % of WT mice",[2],67.4 % of WT
B1,"co-precipitated amount in HD (N171-82Q) mice, % of WT mice",[2],42.9 % of WT
